Non-standard residues stand in square brackets, D forms with d. No end group written: not given here. hCys = N[C@@H](CCS)C(=O)O

We go through twelve molecules from patent publication US5962253A, “Oxidative decarboxylation of peptides catalyzed by flavoprotein EpiD” (Boehringer Ingelheim International GmbH, priority 1996, dated 1999).

One data set concerns the target EpiD (Staphylococcus epidermidis, UniProt P30197). To be noted: cited from earlier work; for Reaction with EpiD: reducing conditions, reversed phase chromatography and ES-MS.
The target in data set [1] is T1, flavoprotein EpiD (Staphylococcus epidermidis, UniProt P30197).
T1 construct: made in house; host or cells: E. coli K38 (pGP1-2, pT7-5epiD)
T1 sequence (P30197 whole entry): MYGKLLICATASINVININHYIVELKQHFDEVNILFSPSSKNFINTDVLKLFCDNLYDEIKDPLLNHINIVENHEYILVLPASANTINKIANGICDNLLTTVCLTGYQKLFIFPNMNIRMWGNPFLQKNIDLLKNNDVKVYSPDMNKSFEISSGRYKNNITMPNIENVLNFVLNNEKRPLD
The data set is described as follows: EpiD enzyme assay, oxidative decarboxylation of single peptides (reversed phase chromatography, ES-MS). Format: biochemical, Staphylococcus epidermis. Details: key to Reaction with EpiD: +: reaction with EpiD; -: no reaction with EpiD occurred, this indicates that using the given assay conditions, no reaction product was detected. To be noted: for Reaction with EpiD: single peptide determinations, 0.5-1 h at 37° C., pH 8.0, 3 mM dithiothreitol; for substrate of EpiD / reaction with EpiD (in words): single peptides. From the text:
For the determination of the minimal size of the substrate, synthetic peptides with increasingly larger deletions of the amino terminus were used (Table 1). Reaction products were identified by their increasing hydrophobicity, increased absorption at 260 nm in 0.1% trifluoroacetic acid/H2 O/acetonitrile (FIGS. 19A and 19B), and the mass decrease of 46 Da as compared with the unmodified peptides. […] For a further study of the substrate specificity of EpiD, the heptapeptide SFNSYCC (SEQ ID NO: 2) was used. The serine and cysteine residues of the peptide SFNSYCC (SEQ ID NO: 2) form the COOH-terminal bicyclus of mature epidermin, and the possibility could not be excluded that amino acid exchanges in this peptide have an influence on the reaction with EpiD.
The method of the invention, which provides for the oxidative decarboxylation of a peptide, can be carried out in vitro under the following conditions, although it will be clear to those of ordinary skill in the art that the parameters given herein for carrying out the enzymatic reaction may be varied. The enzymatic reaction can be carried out at a temperature of 37° C. in 20 mMTris/HCl buffer (pH 8.0) containing 3 mM dithiothreitol, 1-2 μg of EpiD (the concentration of which is determined according to the method of Bradford, Anal. Biochem. 72:248-254 (1976)), and 10-50 μg of peptide, in a total volume of 1 ml. The enzymatic reaction is carried out for between 0.5 and 1 h.
Purification of EpiD and Enzyme Assay--EpiD was purified as described previously using E. coli expression plasmid pT7-5apiD (Kupke, T. et al, J. Bacteriol. 174:5354-5361 (1992)). The concentration of the EpiD solution was determined according to Bradford (Bradford, M. M., Anal. Biochem. 72:248-254 (1976)); the concentrations of the precursor peptide solutions were estimated by the absorbance at 205 nm using an extinction coefficient of 31 for a protein solution of 1 mg/ml (Janson, J. C., & Ryden, L., Methods Enzymol. 193:441-455 (1990)); the synthetic peptic substrates were weighed out. The enzyme was assayed for 0.5-1 h at 37° C. in 20 mM Tris/HCl buffer (pH 8.0) containing 3 mM dithiothreitol, 1-2 μg of EpiD, and 10-25 μg of precursor peptide or 50 μg of synthetic peptide in a total volume of 1 ml. The reaction mixture was then separated by reversed phase chromatography using a μRPC C2/C18 SC 2.1/10 column (Pharmacia Biotech Inc.). Peptides were eluted with a linear gradient of 0-50% acetronitrile, 0.1% trifluoroacetic acid in 3.8 ml with a flow rate of 200 μl/min. The absorbance was measured simultaneously at 214, 260, and 280 nm. The peptides were collected by the peak fractionation method, dried with a vacuum concentrator, stored at -70° C., dissolved in 30% acetonitrile, and analyzed by ES-MS.

A short description of data set [2]: Determination of the isoelectric point by isoelectric focusing and immunoblot. To be noted: most basic band used. It is filed as physicochemical. How it is done: Therefore, the modified peptides should be more basic than the educts. In order to verify this hypothesis, the isoelectric points of the products and the educts were determined. […] All of the bands were more basic than the educts, and for determination of the isoelectric points, the most basic bands were used. In the case of EpiAR-1Q -46 Da, the most basic band was the most intense band.
The peptide mixture Serva No. 39211 was used as an isoelectric focusing standard. Isoelectric focusing was carried out according to the instruction manual of Serva. The focused peptides were blotted on nitrocellulose and detected with an anti-MBP-EpiA antiserum (Kupke, T., et al., FEMS Lett. 112:43-48 (1993)) using the ECL system (Amersham Corp.).
Background: Immunoblotting shows a protein as a band on a membrane.

The target of data set [3] is T1, flavoprotein EpiD. As to the kind of experiment: Incubation of peptide libraries with EpiD, ES-MS and neutral loss mass spectrometry. To be noted: ES-MS and neutral loss scans. Format: biochemical, Staphylococcus epidermis. How it is done: Heptapeptide sublibraries with one variable amino acid residue (wherein the variable amino acid residue can be any one of the 20 common amino acids Ala, Arg, Asn, Asp, Cys, Gln, Glu, Gly, His, Ile, Leu, Lys, Met, Phe, Pro, Ser, Thr, Trp, Tyr, or Val) at positions 1-7 of the peptide substrate S^1 FNSYCC^7 (SEQ ID NO: 2) were synthesized and incubated with EpiD. Peptides were identified by their masses using product ion scans and neutral loss scans and by comparison of the mass spectra obtained after various incubation times. The heptapeptides with a single amino acid substitution at positions 1-4 were substrates of EpiD (Table 2). At positions 5-7 of the peptide, not all amino acid residues were possible, so the last three amino acids determined the substrate specificity for EpiD (Table 2). […]
Peptide libraries were dissolved to a concentration of 1-2 mg/ml in 20 mM Tris/HCl buffer (pH 8.0) containing 3 mM dithiothreitol. […] Neutral loss scans were recorded after 3 h of incubation.
Electrospray and Tandem Mass Spectrometry--Electrospray mass spectra (Bruins, A. P., et al., Anal. Chem. 59:2642-2646 (1987); Covey, T. R., et al., Rapid Commun. Mass Spectrom. 2:249-256 (1988)) were recorded on a triple quadrupole mass spectrometer API III with a mass range of m/z 10-2400 equipped with a nebulizer-assisted electrospray ("ion spray") source (Sciex, Thornbill, Ontario, Canada). […]

Sequence of EpiD (P30197 whole entry): as above

Regarding `[Zn+2]` [Zn^2+, reference compound], the “effect on the EpiD reaction” value at EpiD is on record as “inhibited”. For the molecule “EpiAC + 22S (MEAVKEKNDLFNLDVKVNAKESNDSGAEPRIASKFICTPGCAKTGSFNSYCC)”, in the data set with flavoprotein EpiD [1], the “Reaction with EpiD” value was “-” and the “substrate of EpiD / reaction with EpiD (in words)” value is given as “No reaction occurred”. For “EpiAR-1Q: mutated EpiA with a mutation in the cleavage sequence of the EpiA leader (MEAVKEKNDLFNLDVKVNAKESNDSGAEPRIASKFICTPGCAKTGSFNSYCC)”, the “Reaction with EpiD” value with EpiD is listed as “reacts”; with flavoprotein EpiD [1], “+”. This molecule had an isoelectric point in data set [2] of 5.0 pH. With “EpiAS + 19A (MEAVKEKNDLFNLDVKVNAKESNDSGAEPRIASKFICTPGCAKTGSFNSYCC)”, in the data set with flavoprotein EpiD [1], the “Reaction with EpiD” value is “+” and the “substrate of EpiD / reaction with EpiD (in words)” value is on record as “substrate for oxidative decarboxylation”. On the same counts, the results for “EpiAdesC^+22 (MEAVKEKNDLFNLDVKVNAKESNDSGAEPRIASKFICTPGCAKTGSFNSYC)” are “-” and “not all peptides with a COOH-terminal cysteine residue were a substrate of EpiD”. For “K-EpiA (MEAVKEKNDLFNLDVKVNAKESNDSGAEPRIASKFICTPGCAKTGSFNSYCC)”, in the data set with flavoprotein EpiD [1], the “Reaction with EpiD” value is reported as “+”. Take “Proepidermin: COOH-terminal proepidermin fragment of EpiA (amino acids +1 to +22) (IASKFICTPGCAKTGSFNSYCC)”: the entries for the “Reaction with EpiD” value in the data set with EpiD and in the data set with flavoprotein EpiD [1] were “reacts” and “+”, respectively. On to SFNSMCC, for which the “substrate of EpiD / reaction product in library (in words)” value with flavoprotein EpiD [3] is “weak”. As to “SFNSYCC--NH2 (SFNSYCC-NH2; cysteine pairing not given here) [the amide of SFNSYCC]”, in the data set with flavoprotein EpiD [1], the “Reaction with EpiD” value is on record as “-” and the “substrate of EpiD / reaction with EpiD (in words)” value was “not substrates of EpiD”. “SFNSYCHCy (SFNSYC[hCys]; cysteine pairing not given here) [peptide SFNSYC with COOH-terminal homocysteine residue]”: in the data set with flavoprotein EpiD [1], the “Reaction with EpiD” value is recorded as “-” and the “substrate of EpiD / reaction with EpiD (in words)” value is given as “not substrates of EpiD”. In the case of SFNSYGC, the “Reaction with EpiD” value with flavoprotein EpiD [1] is “-”. For “Synthetic proepidermin: chemically synthesized proepidermin (amino acids +1 to +22 of EpiA) (IASKFICTPGCAKTGSFNSYCC)”, the “Reaction with EpiD” value with flavoprotein EpiD [1] is reported as “+”.
